Consider 7 substances from US20230287598A1.

Several values for one entry are separate records, joined by “and”; a condition that tells them apart may be missing. Equal values may be shown once. Read-outs that look alike come from different tables or passages of the source.

Test [1] concerns the target CXCR1 (UniProt P25024). Briefly: cell-based or functional assay.
Test [2] concerns the target CXCR1 (UniProt P25024). Briefly: cell-based or functional assay. The source holds these as a separate data set.
For the next test, the target named is Kv1.3 (human) (UniProt P22001). Briefly: cell-based or functional assay.
Test [3] deals with CXCR1 (UniProt P25024). Briefly: flow cytometry, CXCR1-U2OS / parental U2OS; HC BLV1H12+CDR3-IL8.
The target in test [4] is CXCR1 (UniProt P25024). Briefly: flow cytometry on CXCR1-U2OS cells, supernatant IgG (parental U2OS: 76).

Sequence of IL-8 (P10145 28-99 limits assumed): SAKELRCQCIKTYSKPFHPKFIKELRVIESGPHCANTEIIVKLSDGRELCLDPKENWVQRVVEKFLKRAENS
Sequence of soluble IL-8 (P10145 28-99 limits assumed): as above
Sequence of CXCR1 (P25024 whole entry): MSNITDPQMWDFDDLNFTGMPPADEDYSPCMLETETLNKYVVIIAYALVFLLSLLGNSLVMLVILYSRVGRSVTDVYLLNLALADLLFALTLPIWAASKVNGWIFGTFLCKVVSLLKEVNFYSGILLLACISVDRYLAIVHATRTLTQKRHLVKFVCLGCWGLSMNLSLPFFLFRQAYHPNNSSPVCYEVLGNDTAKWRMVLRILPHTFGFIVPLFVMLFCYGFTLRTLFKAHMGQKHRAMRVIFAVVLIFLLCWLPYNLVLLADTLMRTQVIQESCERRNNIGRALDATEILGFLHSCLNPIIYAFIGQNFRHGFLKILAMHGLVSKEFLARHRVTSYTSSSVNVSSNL
Sequence of Kv1.3 (human) (P22001 whole entry): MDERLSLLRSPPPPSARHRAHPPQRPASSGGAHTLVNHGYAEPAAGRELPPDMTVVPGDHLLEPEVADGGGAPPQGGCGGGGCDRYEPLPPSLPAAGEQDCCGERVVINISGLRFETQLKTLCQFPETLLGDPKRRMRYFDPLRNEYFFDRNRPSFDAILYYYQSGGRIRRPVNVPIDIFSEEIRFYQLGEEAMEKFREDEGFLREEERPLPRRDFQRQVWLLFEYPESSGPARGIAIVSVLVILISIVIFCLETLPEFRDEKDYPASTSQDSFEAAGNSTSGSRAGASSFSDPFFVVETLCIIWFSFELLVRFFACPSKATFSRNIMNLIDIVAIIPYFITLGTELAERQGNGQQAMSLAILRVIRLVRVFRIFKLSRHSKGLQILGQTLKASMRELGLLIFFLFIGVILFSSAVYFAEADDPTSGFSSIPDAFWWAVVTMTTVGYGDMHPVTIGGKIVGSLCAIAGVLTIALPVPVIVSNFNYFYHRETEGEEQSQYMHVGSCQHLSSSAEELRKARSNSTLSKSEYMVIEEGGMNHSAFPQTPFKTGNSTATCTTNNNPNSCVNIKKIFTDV

On to “IgG VH4-4 CDR3 BsaI (lacking the IL-8 insert) (antibody)”, for which, in the test with CXCR1 [1], the CXCR1 activation, average RLU at 0.001 nM IgG came out at 7500 RLU; the CXCR1 activation, average RLU at 0.004 nM IgG worked out at 7390 RLU; the CXCR1 activation, average RLU at 0.013 nM IgG was 7050 RLU; the CXCR1 activation, average RLU at 0.040 nM IgG was found to be 6970 RLU. In the test with CXCR1 [1], this substance displayed a CXCR1 activation, average RLU at 0.120 nM IgG of 7330 RLU; a CXCR1 activation, average RLU at 0.359 nM IgG of 6690 RLU; a CXCR1 activation, average RLU at 1.076 nM IgG of 7180 RLU; a CXCR1 activation, average RLU at 3.228 nM IgG of 7030 RLU. Besides, in the test with CXCR1 [1], the CXCR1 activation, average RLU at 9.685 nM IgG came to 7170 RLU; the CXCR1 activation, average RLU at 29.056 nM IgG worked out at 7100 RLU; the CXCR1 activation, average RLU at 87.167 nM IgG amounted to 7140 RLU; the CXCR1 activation, average RLU at 261.500 nM IgG stood at 7540 RLU.

As to “IL-8 (from UniProt P10145 28-99) (ligand)”, in the test with CXCR1 [1], the CXCR1 activation, average RLU at 0.01 nM is 440 RLU; the CXCR1 activation, average RLU at 0.08 nM is 504 RLU; the CXCR1 activation, average RLU at 0.23 nM worked out at 940 RLU; the CXCR1 activation, average RLU at 0.69 nM was found to be 1940 RLU. For the same substance, in the test with CXCR1 [1], the CXCR1 activation, average RLU at 2.06 nM turned out to be 4110 RLU; the CXCR1 activation, average RLU at 6.17 nM was found to be 5870 RLU; the CXCR1 activation, average RLU at 18.52 nM was found to be 7300 RLU; the CXCR1 activation, average RLU at 31.5 nM came out at 55500 RLU. Moreover, in the test with CXCR1 [1], the CXCR1 activation, average RLU at 55.56 nM turned out to be 7360 RLU; the CXCR1 activation, average RLU at 166.67 nM was determined as 6770 RLU; the CXCR1 activation, average RLU at 500.00 nM turned out to be 5720 RLU; the CXCR1 activation, luminescence at 0.4 nM IL-8 domains turned out to be 4930. Besides, in the test with CXCR1 [1], the CXCR1 activation, luminescence at 1.6 nM IL-8 domains amounted to 8730; the CXCR1 activation, luminescence at 6.25 nM IL-8 domains was determined as 22300; the CXCR1 activation, luminescence at 25 nM IL-8 domains was 42200; the CXCR1 activation, luminescence at 100 nM IL-8 domains was found to be 54000. Besides, in the test with CXCR1 [2], the CXCR1 activation, luminescence at 0.4 nM IL-8 domains was 6530; the CXCR1 activation, luminescence at 1.6 nM IL-8 domains is 12200; the CXCR1 activation, luminescence at 6.25 nM IL-8 domains was found to be 28600; the CXCR1 activation, luminescence at 25 nM IL-8 domains amounted to 50500. The CXCR1 activation, luminescence at 100 nM IL-8 domains with CXCR1 [2] is 70200.

Take Negative Control IgG (antibody): in the test with Kv1.3 (human), the IL-2 ELISA (A450), Donor 1, 0.01 nM IgG is 2 A450 and 2.15 A450; the IL-2 ELISA (A450), Donor 1, 0.75 nM IgG is 2.11 A450 and 2.04 A450; the IL-2 ELISA (A450), Donor 1, 68 nM IgG was 1.48 A450 and 1.55 A450; the IL-2 ELISA (A450), Donor 2, 0.01 nM IgG was 1.61 A450 and 1.48 A450. In addition, in the test with Kv1.3 (human), the IL-2 ELISA (A450), Donor 2, 0.75 nM IgG was 1.56 A450 and 1.52 A450; the IL-2 ELISA (A450), Donor 2, 68 nM IgG was 1.5 A450 and 1.37 A450; the TNF-α ELISA (A450), Donor 1, 0.01 nM IgG is 1.62 A450 and 1.66 A450; the TNF-α ELISA (A450), Donor 1, 0.75 nM IgG is 1.69 A450 and 1.65 A450. In addition, in the test with Kv1.3 (human), the TNF-α ELISA (A450), Donor 1, 68 nM IgG is 1.02 A450 and 1.13 A450; the TNF-α ELISA (A450), Donor 2, 0.01 nM IgG was 2.07 A450 and 1.77 A450; the TNF-α ELISA (A450), Donor 2, 0.75 nM IgG is 2.04 A450 and 1.85 A450; the TNF-α ELISA (A450), Donor 2, 68 nM IgG was 1.88 A450 and 1.54 A450.

Regarding “BLV1H12+CDR3-IL8 / BLV1H12 light chain (SEQ ID NO: 412) IgG (antibody)”, the FACS CXCR1/Parental Ratio with CXCR1 [3] came out at 5.

In the case of “soluble IL-8 (from UniProt P10145 28-99) (ligand)”, in the test with CXCR1 [1], the CXCR1 activation, luminescence, 0.1 nM IL-8 domains stood at 4200 luminescence; the CXCR1 activation, luminescence, 0.5 nM IL-8 domains turned out to be 9790 luminescence; the CXCR1 activation, luminescence, 2.2 nM IL-8 domains came out at 25700 luminescence; the CXCR1 activation, luminescence, 9.9 nM IL-8 domains was 50300 luminescence. In the test with CXCR1 [1], this substance yielded a CXCR1 activation, luminescence, 44 nM IL-8 domains of 54100 luminescence and a CXCR1 activation, luminescence, 200 nM IL-8 domains of 50400 luminescence.

In the test with CXCR1 [1], BLV1H12-IL8 (antibody) had a CXCR1 activation, luminescence, 0.1 nM IL-8 domains of 4520 luminescence; a CXCR1 activation, luminescence, 0.5 nM IL-8 domains of 9940 luminescence; a CXCR1 activation, luminescence, 2.2 nM IL-8 domains of 17600 luminescence; a CXCR1 activation, luminescence, 9.9 nM IL-8 domains of 25300 luminescence. In the test with CXCR1 [1], this substance displayed a CXCR1 activation, luminescence, 44 nM IL-8 domains of 32600 luminescence and a CXCR1 activation, luminescence, 200 nM IL-8 domains of 32200 luminescence.

In the test with CXCR1 [1], BLV1H12+CDR3-IL8 IgG (antibody) gave a CXCR1 activation, average RLU at 0.001 nM IgG of 7440 RLU; a CXCR1 activation, average RLU at 0.004 nM IgG of 7240 RLU; a CXCR1 activation, average RLU at 0.01 nM of 435 RLU; a CXCR1 activation, average RLU at 0.013 nM IgG of 7330 RLU. Also, in the test with CXCR1 [1], the CXCR1 activation, average RLU at 0.040 nM IgG came out at 7740 RLU; the CXCR1 activation, average RLU at 0.08 nM turned out to be 822 RLU; the CXCR1 activation, average RLU at 0.120 nM IgG stood at 8870 RLU; the CXCR1 activation, average RLU at 0.23 nM is 1520 RLU. For the same substance, in the test with CXCR1 [1], the CXCR1 activation, average RLU at 0.359 nM IgG was found to be 13300 RLU; the CXCR1 activation, average RLU at 0.69 nM was found to be 2650 RLU; the CXCR1 activation, average RLU at 1.076 nM IgG was determined as 23700 RLU; the CXCR1 activation, average RLU at 2.06 nM worked out at 3640 RLU. In the test with CXCR1 [1], this substance returned a CXCR1 activation, average RLU at 3.228 nM IgG of 34500 RLU; a CXCR1 activation, average RLU at 6.17 nM of 4430 RLU; a CXCR1 activation, average RLU at 9.685 nM IgG of 39300 RLU; a CXCR1 activation, average RLU at 18.52 nM of 5070 RLU. Also, in the test with CXCR1 [1], the CXCR1 activation, average RLU at 29.056 nM IgG is 47600 RLU; the CXCR1 activation, average RLU at 55.56 nM was 5510 RLU; the CXCR1 activation, average RLU at 87.167 nM IgG worked out at 52100 RLU; the CXCR1 activation, average RLU at 166.67 nM was determined as 6210 RLU. Besides, in the test with CXCR1 [1], the CXCR1 activation, average RLU at 261.500 nM IgG was determined as 56300 RLU and the CXCR1 activation, average RLU at 500.00 nM amounted to 6640 RLU. Besides, the Median Arbitrary Fluorescence Units (AFU) in the test with CXCR1 [4] is 707 AFU.
